Assay [1] addresses OTUB1 (C91S), catalytically inactive mutant (UniProt Q96FW1 1-271, C91S). Description: ITC.
Assay [2] has as its target OTUB1 wild-type (UniProt Q96FW1 1-271). Description: ITC. (ITC needs no label: the signal is the heat of the interaction.)

From doi:10.1101/847806 (bioRxiv, 2019) come the findings set out here.

Sequence of OTUB1 (C91S), catalytically inactive mutant (Q96FW1 whole entry C91S): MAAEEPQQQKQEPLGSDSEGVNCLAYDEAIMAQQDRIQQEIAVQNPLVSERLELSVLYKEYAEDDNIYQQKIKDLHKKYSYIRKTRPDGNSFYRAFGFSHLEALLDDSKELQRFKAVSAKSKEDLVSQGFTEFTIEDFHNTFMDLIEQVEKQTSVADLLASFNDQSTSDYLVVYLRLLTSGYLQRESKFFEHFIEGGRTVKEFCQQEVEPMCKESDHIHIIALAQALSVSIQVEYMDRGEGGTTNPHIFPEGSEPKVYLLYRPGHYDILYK
Sequence of OTUB1 wild-type (Q96FW1 whole entry): as the sequence (Q96FW1 whole entry C91S) above, with S91C counted along it

B1: UBE2D1 (enzyme)
chain: not shown
For the molecule B1, the binding result in assay [1] and in assay [2] was “binds” in each case.

B2: UBE2N (enzyme, human, UniProt P61088 1-152, looked up)
chain: MAGLPRRIIKETQRLLAEPVPGIKAEPDESNARYFHVVIAGPQDSPFEGGTFKLELFLPEEYPMAAPKVRFMTKIYHPNVDKLGRICLDILKDKWSPALQIRTVLLSIQALLSAPNPDDPLANDVAEQWKTNEAQAIETARAWTRLYAMNNI
One may read the Kd as a measure of binding affinity in units of concentration. As for B2, in assay [1], binding was characterised by a dissociation constant (Kd) of 8.1 µM.

B3: UBE2E1 (enzyme, human, UniProt P51965 1-193, looked up)
chain: MSDDDSRASTSSSSSSSSNQQTEKETNTPKKKESKVSMSKNSKLLSTSAKRIQKELADITLDPPPNCSAGPKGDNIYEWRSTILGPPGSVYEGGVFFLDITFTPEYPFKPPKVTFRTRIYHCNINSQGVICLDILKDNWSPALTISKVLLSICSLLTDCNPADPLVGSIATQYMTNRAEHDRMARQWTKRYAT
As for B3, in assay [1], the binding result was “binds”.
